Reference: patent EP4538288A1

Molecular target: cynomolgus CD40 overexpressed on CHO cells (cynomolgus) [GFP: P42212]
Experiment: flow cytometry on CHO cells expressing cynomolgus CD40

EC50: 7.28 nM
Substance: CP870893-IgG2 (antibody)
